Measured values published in US20210054355A1 (NEW YORK UNIVERSITY, published 2021).

Legend:
[1] = biological target: T1, FGFR1c^ecto (human FGFR1c ligand-binding domain, D2, D3 and D2-D3 linker) (human, UniProt P11362 142-365); assay: crystal structure of the ternary complex, 3.0 Å
T1 sequence: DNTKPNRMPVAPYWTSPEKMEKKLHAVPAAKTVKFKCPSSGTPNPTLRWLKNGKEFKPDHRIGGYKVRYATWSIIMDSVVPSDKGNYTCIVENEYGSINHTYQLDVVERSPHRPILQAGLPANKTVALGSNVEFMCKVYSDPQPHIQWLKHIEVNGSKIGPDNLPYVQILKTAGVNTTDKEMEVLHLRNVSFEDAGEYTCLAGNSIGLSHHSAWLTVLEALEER
Method: To prepare the FGF23-FGFR1c^ecto-αKlotho^ecto complex, its purified components were mixed at a molar ratio of 1.2:1.2:1 and spin-concentrated using an Amicon Ultra-15 concentrator (#UFC901024, Merck Millipore, Germany). The concentrated sample was applied to a Superdex 200 column (GE Healthcare, USA) and eluted isocratically in 25 mM HEPES pH 7.5 buffer containing 500 mM NaCl and 100 mM (NH₄)₂SO₄. Column peak fractions were analyzed by SDS-PAGE and peak fractions containing the ternary complex were concentrated to 7 mg/ml. Concentrated ternary complex was screened for crystallization by sitting drop vapor diffusion. A range of commercially available crystallization screen kits was used: Protein Complex Suite (#130715), Classics Suite (#130701), Classics II Suite (#130723), and Classics Lite Suite (#130702) from Qiagen, Germany; Crystal Screen (#HR2-110), Crystal Screen 2 (#HR2-112), Crystal Screen Lite (#HR2-128), PEG/Ion Screen (#HR2-126), and PEGRx1 (#HR2-082) from Hampton Research, USA; and PEG Grid Screening Kit (#36436) and Crystallization Cryo Kit (#75403) from Sigma-Aldrich, USA. Drops consisting of 100 nl reservoir solution and 100 nl protein complex solution were equilibrated against 100 μl well volume set up in 96-well plates (Fisher Scientific, USA) using a Mosquito crystallization robot (TTP Labtech, U.K.). […]

[2] = biological target: T2, αKlotho^ecto/ΔRBA (soluble αKlotho ectodomain lacking L544 to T565 of the KL2 β1α1 loop) (human, UniProt Q9UEF7 34-981); assay: size-exclusion chromatography of FGF23/αKlotho^ecto/ΔRBA mixture
T2 construct: the mature protein is E34 to S959; Expressed and purified like the wild type (pEF1α/myc-His A); also called α-Klotho^ecto/deltaRBA; αKlotho^ecto/ΔRBA mutant
T2 sequence: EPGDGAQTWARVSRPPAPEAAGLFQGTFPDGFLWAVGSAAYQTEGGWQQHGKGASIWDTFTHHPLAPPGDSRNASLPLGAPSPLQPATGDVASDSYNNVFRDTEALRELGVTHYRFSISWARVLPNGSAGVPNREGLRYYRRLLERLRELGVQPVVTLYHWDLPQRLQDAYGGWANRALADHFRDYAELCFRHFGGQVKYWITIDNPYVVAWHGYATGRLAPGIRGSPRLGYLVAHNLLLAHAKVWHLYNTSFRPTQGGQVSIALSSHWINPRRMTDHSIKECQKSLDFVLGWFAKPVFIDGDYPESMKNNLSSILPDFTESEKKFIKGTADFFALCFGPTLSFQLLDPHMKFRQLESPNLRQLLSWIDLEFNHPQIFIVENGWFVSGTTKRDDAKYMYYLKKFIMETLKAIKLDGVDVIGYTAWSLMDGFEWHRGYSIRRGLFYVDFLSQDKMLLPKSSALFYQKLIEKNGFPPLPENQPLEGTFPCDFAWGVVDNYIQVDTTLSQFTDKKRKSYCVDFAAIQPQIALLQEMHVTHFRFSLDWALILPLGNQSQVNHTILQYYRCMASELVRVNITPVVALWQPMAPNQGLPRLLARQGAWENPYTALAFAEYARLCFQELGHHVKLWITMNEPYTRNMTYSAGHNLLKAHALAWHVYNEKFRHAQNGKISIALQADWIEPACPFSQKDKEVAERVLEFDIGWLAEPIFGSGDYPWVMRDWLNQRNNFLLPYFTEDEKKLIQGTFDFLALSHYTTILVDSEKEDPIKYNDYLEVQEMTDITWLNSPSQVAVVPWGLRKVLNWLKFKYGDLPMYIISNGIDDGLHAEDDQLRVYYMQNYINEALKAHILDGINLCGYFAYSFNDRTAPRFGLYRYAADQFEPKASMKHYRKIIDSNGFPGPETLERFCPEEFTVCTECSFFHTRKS

B1: FGF23^WT (human FGF23 Y25 to S205 with R176Q/R179Q, protease-resistant minimal protein) (ligand)
chain: YPNASPLLGSSWGGLIHLYTATARNSYHLQIHKNGHVDGAPHQTIYSALMIRSEDAGFVVITGVMSRRYLCMDFRGNIFGSHYFDPENCRFQHQTLENGYDVYHSPQYHFLVSLGRAKRAFLPGMNPPPYSQFLSRRNEIPLIHFNTPIPRQHTQSAEDDSERDPLNVLKPRARMTPAPAS
notes: also called wild-type FGF23; minimal FGF23
Question: Does B1 bind [1]?
Answer: binds

Question: Does B1 bind [2]?
Answer: binds
